Among the data in the supplement of paper PMC10567573 are protein stability index values, retold here.

First the molecules themselves.
B1: MYOZ1 (parent)
chain: FSDSSMDHFQKFLPTVGGQLGTAG
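Also: lentivirally expressed fusions sorted by FACS into six bins by GFP to DsRed ratio, PSI derived from sequencing read proportions per bin multiplied by bin number.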

Variants of B1 are the subject of the data set. Put plainly: protein stability index of a GFP-peptide fusion (GPS, HEK-293T) (PSI 1-6); higher = more stable. The conditions noted are these: c terminus: a fixed tail appended.
Consider FSDSSMDHFQKFLPTVGGQLHTAG [G21H], for which the protein stability index turned out to be 2.14.
In the case of FSDSSMDHFQKFLPTVGGQLPTAG [G21P] it was 2.54; in that of FSDSSMDHFQKFLPTVGGQLFTAG [G21F], 1.62.
For FSDSSMDHFQKFLPTVGGQLITAG [G21I], the protein stability index was determined as 1.76.
In the case of FSDSSMDHFQKFLPTVGGQLQTAG [G21Q] it was 2.04; in that of FSDSSMDHFQKFLPTVGGQLWTAG [G21W], 1.76.
To FSDSSMDHFQKFLPTVGGQLRTAG [G21R] belongs 2.25.
On to FSDSSMDHFQKFLPTVGGQLYTAG [G21Y], for which the protein stability index is 1.59.
To FSDSSMDHFQKFLPTVGGQLETAG [G21E] belongs 2.35; to FSDSSMDHFQKFLPTVGGQLTTAG [G21T], 2.13.
To FSDSSMDHFQKFLPTVGGQLMTAG [G21M] belongs 2.28; to FSDSSMDHFQKFLPTVGGQLATAG [G21A], 1.87.
To FSDSSMDHFQKFLPTVGGQLDTAG [G21D] belongs 2.81.
For FSDSSMDHFQKFLPTVGGQLCTAG [G21C], the protein stability index was determined as 1.61.
Turning to FSDSSMDHFQKFLPTVGGQLKTAG [G21K], the protein stability index came out at 2.32.
To FSDSSMDHFQKFLPTVGGQLVTAG [G21V] belongs 1.75.
To FSDSSMDHFQKFLPTVGGQLSTAG [G21S] belongs 1.69; to FSDSSMDHFQKFLPTVGGQLLTAG [G21L], 2.71.
In the case of FSDSSMDHFQKFLPTVGGQLNTAG [G21N] it was 2.98; in that of FSDSSMDHFQKFLPTVGGQLGRAG [T22R], 2.16; in that of FSDSSMDHFQKFLPTVGGQLGCAG [T22C], 1.81.
FSDSSMDHFQKFLPTVGGQLGDAG [T22D]: the protein stability index is 2.86.
In the case of FSDSSMDHFQKFLPTVGGQLGNAG [T22N] it was 2.54; in that of FSDSSMDHFQKFLPTVGGQLGGAG [T22G], 2.09.
In the case of FSDSSMDHFQKFLPTVGGQLGHAG [T22H] it was 1.86; in that of FSDSSMDHFQKFLPTVGGQLGFAG [T22F], 1.82.
As to FSDSSMDHFQKFLPTVGGQLGKAG [T22K], the protein stability index was determined as 3.06.
Regarding FSDSSMDHFQKFLPTVGGQLGMAG [T22M], the protein stability index is 2.14.
To FSDSSMDHFQKFLPTVGGQLGEAG [T22E] belongs 3.05.
To FSDSSMDHFQKFLPTVGGQLGQAG [T22Q] belongs 2.36.
To FSDSSMDHFQKFLPTVGGQLGAAG [T22A] belongs 2.29; to FSDSSMDHFQKFLPTVGGQLGWAG [T22W], 1.43; to FSDSSMDHFQKFLPTVGGQLGYAG [T22Y], 2.05.
For the variant FSDSSMDHFQKFLPTVGGQLGSAG [T22S], the protein stability index is 2.19.
For the variant FSDSSMDHFQKFLPTVGGQLGPAG [T22P], the protein stability index is 2.15.
To FSDSSMDHFQKFLPTVGGQLGIAG [T22I] belongs 2.57; to FSDSSMDHFQKFLPTVGGQLGLAG [T22L], 3.17; to FSDSSMDHFQKFLFTVGGQLGTAG [P14F], 2.83.
In the case of FSDSSMDHFQKFLLTVGGQLGTAG [P14L] it was 4.1; in that of FSDSSMDHFQKFLCTVGGQLGTAG [P14C], 1.41; in that of FSDSSMDHFQKFLNTVGGQLGTAG [P14N], 1.47.
In the case of FSDSSMDHFQKFLQTVGGQLGTAG [P14Q] it was 2.38; in that of FSDSSMDHFQKFLVTVGGQLGTAG [P14V], 3.62; in that of FSDSSMDHFQKFLDTVGGQLGTAG [P14D], 1.61.
Consider FSDSSMDHFQKFLGTVGGQLGTAG [P14G], for which the protein stability index came out at 1.58.
To FSDSSMDHFQKFLRTVGGQLGTAG [P14R] belongs 1.44; to FSDSSMDHFQKFLMTVGGQLGTAG [P14M], 2.68; to FSDSSMDHFQKFLTTVGGQLGTAG [P14T], 2.25.
Consider FSDSSMDHFQKFLPEVGGQLGTAG [T15E], for which the protein stability index was found to be 2.5.
In the case of FSDSSMDHFQKFLPSVGGQLGTAG [T15S] it was 2.93; in that of FSDSSMDHFQKFLPPVGGQLGTAG [T15P], 2.51; in that of FSDSSMDHFQKFLPRVGGQLGTAG [T15R], 2.08.
To FSDSSMDHFQKFLPAVGGQLGTAG [T15A] belongs 2.64.
Regarding FSDSSMDHFQKFLPLVGGQLGTAG [T15L], the protein stability index turned out to be 1.9.
To FSDSSMDHFQKFLPFVGGQLGTAG [T15F] belongs 2.13; to FSDSSMDHFQKFLPNVGGQLGTAG [T15N], 1.7.
As to FSDSSMDHFQKFLPWVGGQLGTAG [T15W], the protein stability index worked out at 1.33.
To FSDSSMDHFQKFLPMVGGQLGTAG [T15M] belongs 1.85.
In the case of FSDSSMDHFQKFLPDVGGQLGTAG [T15D] it was 2.61; in that of FSDSSMDHFQKFLPVVGGQLGTAG [T15V], 2.66; in that of FSDSSMDHFQKFLPIVGGQLGTAG [T15I], 2.43.
As for FSDSSMDHFQKFLPHVGGQLGTAG [T15H], the protein stability index was found to be 2.69.
In the case of FSDSSMDHFQKFLPGVGGQLGTAG [T15G] it was 2.46; in that of FSDSSMDHFQKFLPKVGGQLGTAG [T15K], 2.64.
To FSDSSMDHFQKFLPYVGGQLGTAG [T15Y] belongs 1.93.
In the case of FSDSSMDHFQKFLPCVGGQLGTAG [T15C] it was 2.33.
In the case of FSDSSMDHFQKFLPQVGGQLGTAG [T15Q], the protein stability index stood at 2.94.
In the case of FSDSSMDHFQKFLPTVGGQLGTRG [A23R] it was 2.95; in that of FSDSSMDHFQKFLPTVGGQLGTKG [A23K], 2.14; in that of FSDSSMDHFQKFLPTVGGQLGTQG [A23Q], 2.62.
Take FSDSSMDHFQKFLPTVGGQLGTCG [A23C]: the protein stability index is 2.08.
To FSDSSMDHFQKFLPTVGGQLGTTG [A23T] belongs 2.59; to FSDSSMDHFQKFLPTVGGQLGTPG [A23P], 2.22; to FSDSSMDHFQKFLPTVGGQLGTMG [A23M], 1.63.
For the variant FSDSSMDHFQKFLPTVGGQLGTNG [A23N], the protein stability index is 2.68.
In the case of FSDSSMDHFQKFLPTVGGQLGTYG [A23Y] it was 2.19.
Take FSDSSMDHFQKFLPTVGGQLGTIG [A23I]: the protein stability index was 1.91.
Regarding FSDSSMDHFQKFLPTVGGQLGTHG [A23H], the protein stability index was 2.3.
To FSDSSMDHFQKFLPTVGGQLGTLG [A23L] belongs 2.01; to FSDSSMDHFQKFLPTVGGQLGTDG [A23D], 2.68; to FSDSSMDHFQKFLPTVGGQLGTSG [A23S], 1.83.
To FSDSSMDHFQKFLPTVGGQLGTWG [A23W] belongs 2.01.
To FSDSSMDHFQKFLPTVGGQLGTGG [A23G] belongs 2.77; to FSDSSMDHFQKFLPTVGGQLGTFG [A23F], 2.49; to FSDSSMDHFQKFLPTVGGQLGTEG [A23E], 2.92.
As for FSDSSMDHFQKFLPTVGGQLGTAA [G24A], the protein stability index stood at 1.71.
In the case of FSDSSMDHFQKFLPTVGGQLGTAC [G24C] it was 1.95.
In the case of FSDSSMDHFQKFLPTVAGQLGTAG [G17A] it was 2.48; in that of FSDSSMDHFQKFLPTVVGQLGTAG [G17V], 2.38.
To FSDSSMDHFQKFLPTVDGQLGTAG [G17D] belongs 2.33; to FSDSSMDHFQKFLPTVCGQLGTAG [G17C], 1.97; to FSDSSMDHFQKFLPTVPGQLGTAG [G17P], 2.59.
Regarding FSDSSMDHFQKFLPTVLGQLGTAG [G17L], the protein stability index was determined as 1.56.
In the case of FSDSSMDHFQKFLPTVHGQLGTAG [G17H] it was 2.47.
